Test results from patent US20110009597A1, “RECOMBINANT GANODERMA LUCIDIUM IMMUNOMODULATORY PROTEIN (rLZ-8) AND USES THEREOF” (priority 2008, published 2011).

Key:
[1] = system: WBC; test: Prevention of radiation leucopenia model of mice, WBC; type: in vivo; parameters: unit not given here; details: for WBC, 5th day (rLZ-8): 5th day of administration before radiation; for WBC, 5th day / WBC, 7th day: after 7.5 Gy γ-ray
Protocol: rLZ-8 preparation of sterile saline. Divide them into 5 μg·kg^−1, 2.5 μg·kg^−1, 1.25 μg·kg^−1, 0.62 μg·kg^−1 dose groups. 0.2 ml/vial.
Genlei™ Scimax™ [Recombinant human granulocyte colony-stimulating factor injection (rhG-CSF)], production lot: 20060403; 150 μg/vial is prepared with sterile normal saline into the preparation of 3.2 μg·kg^−1, 0.2 ml/vial.
The mice were irradiated by 7.5 Gy γ-ray (180 mV, 15 mA) and then divided into seven groups (n=10): (A) negative control; (B) 5 μg·kg−1 dose; (C) 2.5 μg·kg−1 dose; (D) 1.25 μg·kg−1 dose; (E) 0.62 μg·kg−1 dose; (F) positive control (Genlei™ Scimax™); (G) model group. Before modeling 5 days, mice in each group were administered with Genlei™ Scimax™ and rLZ-8 for 5 days, on the 5th day, mice were radiated, for 5 days, and on the 7th day, drew blood from tail, tested the number of WBC, weight spleen, calculated index of spleen.

[2] = system: human erythrocyte; type: cell-based
Protocol: rLZ-8 prepares 5% of glucose solution into the preparation of 1 mg·ml^−1; blood cell suspension preparation: human blood 4 ml, 1000 r/min centrifugal 10 min, clears supernatant. […] Prepare the obtained erythrocyte with 5% glucose solution into 2% suspension for experiment.
Get 28 clean test tubes and number them, No. 1-5 for rLZ-8 drug group, No.6 for negative control group (5% glucose solution), No. 7 for positive control tube (distilled water), and a total of 4 parallel comparison tubes. By supplying 2% erythrocyte suspension, 5% glucose or distilled water in turn, shaking, put them into incubators 37° C.±0.5° C. immediately for incubation. Observe them every 15 min, 1 h after observe them once for 3 hours. Finishing the observation, put all the solution from the tubes into centrifugal drying tubes, 1500 r, 25 min. Clear the supernatant, read the blank distilled water tube for OD value to calculate the rate of hemolysis.

[3] = system: HL-60; test: Annexin V-FITC flow cytometry, apoptosis of HL-60; type: cell-based; details: Annexin V/PI
Protocol: FACS Calibur flow cytometry, U.S. Becton-Dickinson.Coompany. NB4, HL-60. rLZ-8 is prepared with IMDM culture medium containing 2% FCS into the preparation of 0.1 μg·ml^−1, 0.5 μg·ml^−1, 2.5 μg·ml^−1, arsenic trioxide (As2O3) 0.5 μg·ml^−1 AnnexinV-FITC kit: combining buffer solution 4×; Propidium iodide solution (PI), 20 μg·ml−1, 0.2 ml; recombinant human Annexin V/FITC, 0.1 ml.
Establish NB4 normal control group, positive drug group (As2O3 0.5 μg·ml^−1), protein low-dose group (0.1 μg·ml^−1), medium-dose group (0.5 μg·ml^−1), high-dose group, (2.5 μg·ml^−1); establish HL-60 normal control group, protein low-dose group (0.1 μg·ml^−1), medium-dose group (0.5 μg·ml^−1), high-dose group, (2.5 μg·ml^−1).
Mix NB4 and HL-60 cell into 24-orifice plate respectively, 1 ml/hole supply rLZ-8 in different concentrates, set 3-orifice multipunches for each group. Put them in 37° C., 5% CO2 incubator for 24 h, collect the cells of each concentrate, washes the cells twice with pre-cooled PBS 4° C., with 250 μl binding buffer solution re-suspending cells and regulates the cell density to 1×10^6/ml, taking out 100 μl to 5 ml streaming tube, and add 5 μl Annexin V/FITC and 10 μl 20 μg·ml^−1 PI solution, after mixing put it in room temperature and lucifuged hatching 15 min, add 400 μl PBS by flow cytometry analysis.

[4] = system: K562; test: PI single stained flow cytometry, apoptosis of K562; type: cell-based
Protocol: Fluorescence microscope, model Leica ASLMD, K562, NB4. rLZ-8 is classified into high, medium and low three-dose groups respectively, now we prepare them with IMDM culture medium containing 2% FCS into the preparation of 2.5 μg·ml^−1, 0.5 μg/ml, 0.1 μg·ml^−1. […] (PI) 50 μg·ml ^−1.
Establish K562 as the normal control group, rLZ-8 low-dose group (0.1 μg·ml^−1), rLZ-8 medium dose group (0.5 μg·ml^−1), rLZ-8 high-dose group, (2.5 μg·ml^−1); set NB4 as the normal control group, rLZ-8 low-dose group (0.1 μg·ml^−1), rLZ-8 medium dose group (0.5 μg·ml^−1), rLZ-8 high-dose group, (2.5 μg·ml^−1).
Mix K562 and NB4 cells into 24-orifice plate respectively, and supply rLZ-8 in different concentrates, 1 ml/orifice, set 3-orifice multipunches for each group. Put them in 37° C., 5% CO2 incubator for 24 h, collect the cells of each concentrate, PBS washes twice and regulates the cell density to 1×10^6/ml, 70% ice ethanol fixation, adjusts to −20° C. and stays overnight. Wash the cells with PBS twice after fixing the cells, add PI (end density 50 μg·ml^−1) for room temperature and lucifuged hatching 10 min, 1000 r·min^−1 centrifuge 5 min, clear supernatant with disposable 400μ. IPBS re-suspension precipitation. And test on computer in 1 h.

B1: rLZ-8: Recombinant Ganoderma Lucidum Immune Regulatory Protein expressed in Pichia pastoris (protein, UniProt P14945 2-111, looked up)
Immunomodulatory protein Ling …: SDTALIFRLAWDVKKLSFDYTPNWGRGNPNNFIDTVTFPKVLTDKAYTYRVAVSGRNLGVKPSYAVESDGSQKVNFLEYNSGYGIADTNTIQVFVVDPDTNNDFIIAQWN
B1 was tested, and the “WBC, 5th day (rLZ-8)” value ([1]; rLZ-8 0.62 μg·kg^−1) was 10.7 ± 0.45, the “WBC, 5th day” value ([1]; rLZ-8 0.62 μg·kg^−1) was 0.16 ± 0.31 and the “WBC, 7th day” value ([1]; rLZ-8 0.62 μg·kg^−1) was 0.40 ± 0.12. For the same molecule, the “WBC, 5th day (rLZ-8)” value ([1]; rLZ-8 1.25 μg·kg^−1) was 12.5 ± 0.45, the “WBC, 5th day” value ([1]; rLZ-8 1.25 μg·kg^−1) was 0.25 ± 0.11 and the “WBC, 7th day” value ([1]; rLZ-8 1.25 μg·kg^−1) was 0.46 ± 0.11. For the same molecule, the “WBC, 5th day (rLZ-8)” value ([1]; rLZ-8 2.5 μg·kg^−1) was 12.8 ± 0.54, the “WBC, 5th day” value ([1]; rLZ-8 2.5 μg·kg^−1) was 0.32 ± 0.15 and the “WBC, 7th day” value ([1]; rLZ-8 2.5 μg·kg^−1) was 0.45 ± 0.20. For the same molecule, the “WBC, 5th day (rLZ-8)” value ([1]; rLZ-8 5 μg·kg^−1) was 19.5 ± 0.32, the “WBC, 5th day” value ([1]; rLZ-8 5 μg·kg^−1) was 0.32 ± 0.18 and the “WBC, 7th day” value ([1]; rLZ-8 5 μg·kg^−1) was 0.53 ± 0.35. The hmolytic rate [2] was < 5%, the Apoptosis rate ([3]; HL-60, rLZ-8 0.1 μg·ml−1, 24 h) was 30.5% and the Apoptosis rate ([3]; HL-60, rLZ-8 0.5 μg·ml−1, 24 h) was 40.7%. For the same molecule, the Apoptosis rate ([3]; HL-60, rLZ-8 2.5 μg·ml−1, 24 h) was 47.7%, the Apoptosis rate ([4]; K562, rLZ-8 0.1 μg·ml^−1, 24 h) was 16.43% and the Apoptosis rate ([4]; K562, rLZ-8 0.5 μg·ml^−1, 24 h) was 17.91%. For the same molecule, the Apoptosis rate ([4]; K562, rLZ-8 2.5 μg·ml^−1, 24 h) was 21.57%.
